From publication PMC11790958

Biological target: condensin I tetramer lacking NCAPG (CIΔG) (Homo sapiens, UniProt O95347;Q9NTJ3;Q15003;Q15021 1-1197;1-1288;1-741;1-1401)
Test: EMSA; 2.5 mM Mg2+; EMSA: 50 nM DNA, 20 mM HEPES pH 8, 150 mM KCl, 2.5 mM MgCl2, 10% glycerol, 1 mM DTT, on ice 20 min; 2% agarose, 0.5x TB
Settings: protein: recombinant; tags: Strep; copies: 1;1;1;1; label: 5' Cy5 on reverse strand (S2); blunt

Sequence of condensin I tetramer lacking NCAPG (CIΔG) (O95347 whole entry, stated change not applied, chain 1 of 4): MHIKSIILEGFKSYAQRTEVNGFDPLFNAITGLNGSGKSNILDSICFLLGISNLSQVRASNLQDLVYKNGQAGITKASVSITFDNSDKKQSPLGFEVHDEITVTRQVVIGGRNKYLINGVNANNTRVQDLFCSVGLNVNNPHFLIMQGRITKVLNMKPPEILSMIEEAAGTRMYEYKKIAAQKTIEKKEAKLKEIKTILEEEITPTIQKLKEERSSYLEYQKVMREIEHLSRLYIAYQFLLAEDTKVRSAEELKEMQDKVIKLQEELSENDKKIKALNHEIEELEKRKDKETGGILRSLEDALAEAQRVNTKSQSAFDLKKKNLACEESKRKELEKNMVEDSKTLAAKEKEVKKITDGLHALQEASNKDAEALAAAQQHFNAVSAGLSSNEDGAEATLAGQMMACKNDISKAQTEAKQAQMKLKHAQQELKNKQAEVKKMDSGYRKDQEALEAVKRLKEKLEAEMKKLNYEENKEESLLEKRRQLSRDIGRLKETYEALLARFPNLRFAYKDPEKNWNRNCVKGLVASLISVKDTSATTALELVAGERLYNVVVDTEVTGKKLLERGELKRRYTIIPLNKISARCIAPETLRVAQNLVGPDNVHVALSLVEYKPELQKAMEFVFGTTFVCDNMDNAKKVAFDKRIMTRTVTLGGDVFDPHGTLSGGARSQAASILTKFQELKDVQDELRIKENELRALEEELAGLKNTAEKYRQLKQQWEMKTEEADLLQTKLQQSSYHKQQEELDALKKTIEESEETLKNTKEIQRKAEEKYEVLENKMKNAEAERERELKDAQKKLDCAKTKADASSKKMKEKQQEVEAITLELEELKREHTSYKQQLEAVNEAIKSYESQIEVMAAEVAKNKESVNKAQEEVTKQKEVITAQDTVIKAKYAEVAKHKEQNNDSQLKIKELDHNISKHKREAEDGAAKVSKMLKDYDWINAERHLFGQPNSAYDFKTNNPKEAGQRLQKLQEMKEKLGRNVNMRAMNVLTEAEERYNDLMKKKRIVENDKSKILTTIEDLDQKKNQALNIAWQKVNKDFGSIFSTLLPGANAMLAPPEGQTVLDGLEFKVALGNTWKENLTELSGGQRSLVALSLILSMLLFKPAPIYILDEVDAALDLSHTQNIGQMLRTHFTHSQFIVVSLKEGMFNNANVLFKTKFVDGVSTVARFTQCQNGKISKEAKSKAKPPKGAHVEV
Sequence of condensin I tetramer lacking NCAPG (CIΔG) (Q9NTJ3 whole entry, stated change not applied, chain 2 of 4): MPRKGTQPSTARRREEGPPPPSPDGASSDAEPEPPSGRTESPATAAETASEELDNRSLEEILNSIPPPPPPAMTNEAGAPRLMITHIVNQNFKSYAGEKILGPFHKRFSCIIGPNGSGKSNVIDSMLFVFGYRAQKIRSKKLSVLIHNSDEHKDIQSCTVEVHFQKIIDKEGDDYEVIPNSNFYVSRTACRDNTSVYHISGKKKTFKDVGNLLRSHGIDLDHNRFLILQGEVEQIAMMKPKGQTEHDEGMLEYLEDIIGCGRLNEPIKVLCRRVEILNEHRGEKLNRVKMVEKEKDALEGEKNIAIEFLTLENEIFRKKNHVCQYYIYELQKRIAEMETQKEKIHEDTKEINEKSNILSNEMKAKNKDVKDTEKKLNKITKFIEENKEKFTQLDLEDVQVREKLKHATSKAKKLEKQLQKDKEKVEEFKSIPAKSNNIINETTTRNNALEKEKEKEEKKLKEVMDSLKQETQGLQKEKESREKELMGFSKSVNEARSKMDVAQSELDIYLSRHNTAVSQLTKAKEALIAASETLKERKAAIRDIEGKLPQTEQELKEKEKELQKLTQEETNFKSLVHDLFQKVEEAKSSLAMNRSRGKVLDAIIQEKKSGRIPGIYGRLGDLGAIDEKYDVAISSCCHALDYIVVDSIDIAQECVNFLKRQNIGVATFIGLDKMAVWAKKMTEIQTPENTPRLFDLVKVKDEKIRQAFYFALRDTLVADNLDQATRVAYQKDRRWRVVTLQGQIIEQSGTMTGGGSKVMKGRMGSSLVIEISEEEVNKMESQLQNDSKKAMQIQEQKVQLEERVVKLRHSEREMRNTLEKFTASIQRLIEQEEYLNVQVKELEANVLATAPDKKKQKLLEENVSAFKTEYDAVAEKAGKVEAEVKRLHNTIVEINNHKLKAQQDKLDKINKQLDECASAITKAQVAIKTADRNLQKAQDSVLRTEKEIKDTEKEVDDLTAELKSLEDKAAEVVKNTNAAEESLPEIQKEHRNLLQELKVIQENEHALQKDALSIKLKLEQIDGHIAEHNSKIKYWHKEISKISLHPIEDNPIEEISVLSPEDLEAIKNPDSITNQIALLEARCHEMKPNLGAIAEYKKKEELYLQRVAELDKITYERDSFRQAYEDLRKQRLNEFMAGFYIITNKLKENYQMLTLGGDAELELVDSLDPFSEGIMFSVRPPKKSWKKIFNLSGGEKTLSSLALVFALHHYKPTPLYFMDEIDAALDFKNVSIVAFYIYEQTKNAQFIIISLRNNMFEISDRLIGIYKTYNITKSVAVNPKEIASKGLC
Sequence of condensin I tetramer lacking NCAPG (CIΔG) (Q15003 whole entry, stated change not applied, chain 3 of 4): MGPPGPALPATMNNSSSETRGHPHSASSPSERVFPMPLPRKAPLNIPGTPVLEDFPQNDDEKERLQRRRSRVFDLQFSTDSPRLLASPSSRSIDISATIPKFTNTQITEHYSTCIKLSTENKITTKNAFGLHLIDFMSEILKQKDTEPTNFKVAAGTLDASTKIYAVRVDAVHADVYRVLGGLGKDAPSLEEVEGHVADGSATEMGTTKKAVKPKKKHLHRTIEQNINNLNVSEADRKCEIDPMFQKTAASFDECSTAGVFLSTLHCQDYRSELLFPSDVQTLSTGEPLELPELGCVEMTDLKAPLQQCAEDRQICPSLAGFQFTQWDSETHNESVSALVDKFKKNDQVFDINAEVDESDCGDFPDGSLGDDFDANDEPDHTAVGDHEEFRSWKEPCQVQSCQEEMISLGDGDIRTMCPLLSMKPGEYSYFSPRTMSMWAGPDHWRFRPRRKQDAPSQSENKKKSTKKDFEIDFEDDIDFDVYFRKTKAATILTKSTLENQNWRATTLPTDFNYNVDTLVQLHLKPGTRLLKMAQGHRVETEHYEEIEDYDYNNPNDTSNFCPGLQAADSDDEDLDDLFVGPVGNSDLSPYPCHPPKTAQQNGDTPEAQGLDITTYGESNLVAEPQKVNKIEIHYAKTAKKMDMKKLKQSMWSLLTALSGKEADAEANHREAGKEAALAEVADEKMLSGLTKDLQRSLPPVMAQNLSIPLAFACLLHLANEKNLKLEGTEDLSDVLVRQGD
Sequence of condensin I tetramer lacking NCAPG (CIΔG) (Q15021 whole entry, stated change not applied, chain 4 of 4): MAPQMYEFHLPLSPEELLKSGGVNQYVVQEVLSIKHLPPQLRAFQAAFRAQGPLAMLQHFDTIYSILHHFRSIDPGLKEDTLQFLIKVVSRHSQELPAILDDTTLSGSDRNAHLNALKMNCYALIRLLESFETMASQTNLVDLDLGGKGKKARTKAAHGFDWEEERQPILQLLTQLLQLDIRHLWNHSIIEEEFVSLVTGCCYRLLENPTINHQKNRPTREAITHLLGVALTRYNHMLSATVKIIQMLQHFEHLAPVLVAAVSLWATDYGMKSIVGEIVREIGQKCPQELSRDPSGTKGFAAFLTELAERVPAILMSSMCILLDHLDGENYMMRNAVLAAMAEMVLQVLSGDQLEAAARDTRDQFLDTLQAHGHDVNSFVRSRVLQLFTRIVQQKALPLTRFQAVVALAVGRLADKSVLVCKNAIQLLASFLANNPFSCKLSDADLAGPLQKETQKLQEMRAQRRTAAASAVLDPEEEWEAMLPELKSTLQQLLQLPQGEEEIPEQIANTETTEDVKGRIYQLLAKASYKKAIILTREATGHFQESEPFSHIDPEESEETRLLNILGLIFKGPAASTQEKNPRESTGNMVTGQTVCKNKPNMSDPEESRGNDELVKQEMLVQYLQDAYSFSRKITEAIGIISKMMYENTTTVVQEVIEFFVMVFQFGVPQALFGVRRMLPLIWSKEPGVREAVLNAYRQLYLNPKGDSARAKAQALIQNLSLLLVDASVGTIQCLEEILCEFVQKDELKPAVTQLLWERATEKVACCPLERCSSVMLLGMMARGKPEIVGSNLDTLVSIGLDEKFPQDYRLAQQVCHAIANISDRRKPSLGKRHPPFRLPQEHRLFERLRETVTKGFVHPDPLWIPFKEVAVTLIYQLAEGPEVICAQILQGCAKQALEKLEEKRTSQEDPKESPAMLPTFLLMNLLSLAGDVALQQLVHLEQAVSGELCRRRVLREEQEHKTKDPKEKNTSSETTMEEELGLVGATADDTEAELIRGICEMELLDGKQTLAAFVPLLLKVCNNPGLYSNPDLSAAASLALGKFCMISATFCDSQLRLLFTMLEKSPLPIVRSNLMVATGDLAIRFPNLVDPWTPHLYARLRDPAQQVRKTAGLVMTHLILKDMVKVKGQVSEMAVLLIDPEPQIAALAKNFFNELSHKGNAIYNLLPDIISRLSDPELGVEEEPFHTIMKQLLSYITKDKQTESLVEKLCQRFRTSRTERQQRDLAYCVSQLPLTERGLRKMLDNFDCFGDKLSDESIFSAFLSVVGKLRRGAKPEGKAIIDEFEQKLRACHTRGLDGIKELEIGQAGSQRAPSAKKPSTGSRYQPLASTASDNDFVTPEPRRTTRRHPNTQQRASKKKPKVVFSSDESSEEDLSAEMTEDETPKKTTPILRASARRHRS

B1: Cy5 50 bp dsDNA (dsDNA)
DNA 1: GGTGTGACAGGGTGTGACAGGGTGTGACAGGGTGTGACAGGGTGTGACAG
DNA 2: CTGTCACACCCTGTCACACCCTGTCACACCCTGTCACACCCTGTCACACC
  binding signal: ~4 fold lower affinity than CI
